Experimental findings from patent US20250270324A1 (INVOX PHARMA, published 2025) are described below.

A word on the Kd: it is the free concentration of one partner at which half of the binding sites on the other are occupied at equilibrium, for simple one-to-one binding. Read a low Kd as higher affinity.

Test [1] addresses T1, human PD-L1-rCD4-His (human).
T1 construct: Human PD-L1 fused to the monomeric C-terminal rat CD4 domains 3 and 4 tag and His tag; made in HEK293; The entry as printed begins with the signal peptide (MRIF...); also called hPD-L1-rCD4-His; hu-PD-L1-rCD4-His
Put plainly: SPR, IgG1 from culture supernatant. For orientation: SPR reads the build-up and loss of mass on a sensor chip optically.

In test [2] the target is T2, Cyno PD-L1-rCD4-His (cynomolgus).
T2 construct: The entry as printed begins with the signal peptide; also called cynomolgus PD-L1-rCD4-His
Put plainly: SPR, IgG1 from culture supernatant.

The target of test [3] is T1, human PD-L1-rCD4-His. Put plainly: SPR; G1/929_01_A02 on PD-L1-rCD4-His (Table 8) against G1AA/E12v2 on PD-L1-His (Table 9).
In test [4] the target is T2, Cyno PD-L1-rCD4-His. The test is described as above.

T2 sequence (chain, as listed by the source limits assumed): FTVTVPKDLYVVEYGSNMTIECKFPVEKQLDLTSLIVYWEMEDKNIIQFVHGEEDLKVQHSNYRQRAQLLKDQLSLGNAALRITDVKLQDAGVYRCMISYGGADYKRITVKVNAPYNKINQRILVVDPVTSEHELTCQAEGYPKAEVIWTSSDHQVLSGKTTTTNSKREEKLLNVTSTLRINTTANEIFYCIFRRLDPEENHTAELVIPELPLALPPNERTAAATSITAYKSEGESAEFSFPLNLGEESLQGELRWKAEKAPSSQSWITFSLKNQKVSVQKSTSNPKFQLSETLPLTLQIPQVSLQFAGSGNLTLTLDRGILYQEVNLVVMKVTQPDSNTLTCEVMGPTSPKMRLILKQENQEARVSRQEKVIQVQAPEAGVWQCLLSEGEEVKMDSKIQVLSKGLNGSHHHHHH
T1 sequence (chain, as listed by the source limits assumed): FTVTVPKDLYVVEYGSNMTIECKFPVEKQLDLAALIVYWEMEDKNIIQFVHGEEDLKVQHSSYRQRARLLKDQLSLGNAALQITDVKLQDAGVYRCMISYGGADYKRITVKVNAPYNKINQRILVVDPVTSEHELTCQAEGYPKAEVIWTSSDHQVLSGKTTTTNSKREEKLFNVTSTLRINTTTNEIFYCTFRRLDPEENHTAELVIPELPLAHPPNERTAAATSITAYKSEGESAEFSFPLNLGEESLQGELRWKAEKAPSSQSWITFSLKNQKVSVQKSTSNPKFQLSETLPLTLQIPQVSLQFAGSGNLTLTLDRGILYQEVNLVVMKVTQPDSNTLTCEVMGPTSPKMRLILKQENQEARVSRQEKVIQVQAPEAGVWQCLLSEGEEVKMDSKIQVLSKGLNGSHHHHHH

B1: G1/929_01_A02 (antibody, human IgG1, V domains shown)
VH: EVQLVQSGAEVKRPGASVKVSCKASGYTFTSYGISWVRQAPGQGLEWMGWISAYSGGTNYAQKLQGRVTMTTDTSTSTAYMELRSLRSDDTAVYYCARDLFPTIFGVSYYYYWGQGTLVTVSS
VL: DIQMTQSPSTLSASVRDRVIITCRASQSIGNRLAWYQHKPGKAPKLLIYEASTSETGVPSRFSGSGSGTDFTLTISSLQPEDFATYYCQQSYSTPYTFGQGTKLEIKR
notes: IgG1; The heavy chain as printed has T28
For B1, the Kd in test [1] stood at 3.07 nM; in test [2], 3.64 nM. Further, the “fold lower affinity than G1AA/E12v2” value in test [3] and in test [4] was > 10 fold each time.
